# Assay results: the DeepSol protein solubility set
# Assay: soluble on expression in E. coli; label from the status in PepcDB or PDB records
row,Sequence,soluble on expression in E. coli
1,LATMKDVARLAGVSTSTVSHVINKDRFVSEAITAKVEAAIKELNYAPSALARSLKLNQTHTIGMLITASTNPFYSELVRGVERSCFERGYSLVLCNTEGDEQRMNRNLETLMQKRVDGLLLLCTETHQPSREIMQRYPTVPTVMMDWAPFDGDSDLIQDNSLLGGDLATQYLIDKGHTRIACITGPLDKTPARLRLEGYRAAMKRAGLNIPDGYEVTGDFEFNGGFDAMRQLLSHPLRPQAVFTGNDAMAVGVYQALYQAELQVPQDIAVIGYDDIELASFMTPPLTTIHQPKDELGELAIDVLIHRITQPTLQQQRLQLTPILMERGSA,soluble
2,DVQLQESGTVLARPGASVKMSCKASGYSFTSYWMHWIKQRPGQGLEWIGGVYPGDSHTSYNQKFKGKAKLTAVTSASTAYMELSSLTNEDSAVYYCTRSGFDYGNEDWGQGTTLTVSSAKTTPPSVYPLAPGSAAQTNSMVTLGCLVKGYFPEPVTVTWNSGSLSSGVHTFPAVLQSDLYTLSSSVTVPSSPRPSETVTCNVAHPASSTKVDKKI,soluble
3,MISLVLGLLTSKLHYEQTYYTEIAKRARLYHNVVAQFTPFCIDSKTDLVSGLIYDTDTGKWKEQTFPIPSYIYDRYSFHEETDFEKAKSIIHSLHNRPSTTFLNNTLINLSELHDLFLTNKKLSPYIPKFEVATIQNIFKLLLKSKDIIIRPTNIHSKDNLYRVAYKNKTFHIDTVNEKYHTSLSIKRTDEFISWCKSNIRSSRYIVHTMLQPPNQLTYPLHIRTILQKNKEQTWNVIGQFIQKSSFPNQLLPSATDDDSLHSFSKIKYVLSSTGVQLLQDALHDIINEVFQTLDQSYSSLFELELSTIMDQKGAIWLMYVNTIPPYEQYIRHSDSLAEKIFHGPLKFSRFTP,not soluble
4,MENNLAEFERRAEKNLLIMCKEKEKLQKKAHELKRRLLLSQRKRELADVLDAQIEMLSPFEAVATRFKEQYRTFATALDTTRHELPVRSIHLEGDGQQLLDALQHELVTTQRLLGELDVGDSEENVQVLDLLSELKDVTAKKDLELRRSFAQVLELSAEASKEAALANQEVWEETQGMAPPSRWYFNQDSACRESGGAPKNTPLSEDDNPGASSAPAQATFISPSEDFSSSSQAEVPPSLSRSGRDLS,soluble
5,SLPMQHVHTSPVRDYRNRCARREGETVFQVVVEETDLRVTALAELATPMAAYVGELRAQLKVWMEFQPAFRHSLVPVEVPEGAPEVVRRMAHGARLVGVGPFAAVAGTIAQMVAERFVDVSPELIVENGGDLYLYSERDRVVGILPDPASGDMVGILVRAGTAPVSLCGSSARIGHSLSLGDGDLAVVRARDASLADAAATAFGNMLRRADDVAAVTERAAQLASIGIEGVYAQCGGRIGIWGDMELAVA,soluble
6,MGSDKIHHHHHHMAKNKTAYVCSECGQDFPRWQGQCNACGEWNTISEVRLAPAKSSAGSVAGYAGAVGGGSKKLSEVEEFEAKKLLTGIGELDRVLCGGLTTGSVNIISGDPGAGKTTILSDLVSRMSQLMPSLYCTAEESLSQFKNRVNRLRLDCNEENLYLMAETNVEAIIAELEAKQVKFAVIDSIQAVVTDLANGSPGSPSQVKGSAQALTQYCKQNNVTMFLVAHVNKNNETAGPQTLIHIVDCLTHLECNDGQVRTLRANKNRFGDVDTVGIFRMTERGMLSVDNPSEIFLSGSTTESPGAAITCIRKGNRNLLLEIQCLTTEAEGEFPQRVCVGLNMNRIKMLTGILRKHTRTKIYHDTYFNLVGGLKIDESETCIDLALVAALLSSLNEFVVPRTTCIMGELSLNGDVRPIDSGVPRVKEAVQHGFTEIFIPFRNYHKSMEGLGAKINPIKTIHELLELIC,not soluble
7,MSLENISETLRTLMNRKNLNHRYEALMTAVYQDPDVRQFLAAHQNELSSDALERSAAKLYEFCEEKRKIARHEPTQAPGYQPTLVMSNHLIDIAYQPTPQMQEQQAAHALQQRVRSISMPKNIQTADLKTYDQDGDRATALMAALDFIDAYTQAPKRFHRGLYLYGSFGVGKTYLLGGMANALAAKGFNTTLIHFPSFAVEMKRSISNNTSADKVDAIKRAPILMIDDIGADASSTWIRDDVLGVILEYRMQEELPTCFSSNFSMQELQDGYLTLSQKGDEEPVKAQRIMQRVRYLASEIEMVGRNRRLNPDAEGHHHHHH,soluble
8,MSLRRALIIDDEEAVLKIITHFIEMKDMPIKIVGKATSGDEAVDKIIGLEPDIVFIDIQMPIYNGLEVIEKTSHLSKKINFVVITAFNYFEYAQKALRLNVKDILLKPLDMKEFTKSVEKIIGYQYTNNDLLNEILEYINLNYSNDLKLNDCARLFLTNPSNISRIFKSNLNTTFISYLNHIRIEKSIELLENTTKSINEIAEIVGYNSLNNFYKNFKIEKGMTPKVYKLNTEGHHHHHH,not soluble
9,APGVSTILDNRNNPIAWVYKQRRFEIPSEAIPQSMKDAIVSIEDRRFYEHKGVDIQGNLRAIVTNIFAGGVAQGASTIDQQYVKNFLLLVKSDNPEEQAAATETSIPRKLREMRMASTIDSTLSKDDILTRYLNLVHLGNGAFGVEAAARTYFGKGAPELSLAQSAMFAGIVQSSSY,not soluble
10,MGSSHHHHHHSSGRENLYFQGMADQDQLKALRLRIDSLDEKLLELISERARCAQDVARVKTQTLGEGEAPVFYRPEREAWVLKHIMQLNKGPLDNEEVARLFREIMSSCLALEQPLKVAYLGPEGTFTQAAALKHFGNAVISTPMAAIDEVFREVAAGAVNFGVVPVENSTEGAVNHTLDSFLEHDMVICGEVELRIHHHLLVGETTKTDNITRIYSHAQSLAQCRKWLDSHYPSVERVAVSSNADAAKRVKSEWNSAAIAGDMAASLYDLSKLHEKIEDRPDNSTRFLIIGNQEVPPTGDDKTSIIVSMRNKPGALHELLVPFHNNGIDLTRIETRPSRSGKWTYVFFIDFVGHHKEPLIKDVLEKIGQEAVALKVLGSYPKAVL,soluble
11,MKTVRESTTLYNFLGSHNPYWRLTESSDVLRFSTTETTEPDRTLQLSAEQAARIREMTVITSSLMMSLTVDESDLSVHLVGRKINKREWAGNASAWHDTPAVARDLSHGLSFAEQVVSEAHSAIVILDSRGNIQRFNRLCEDYTGLKEHDVIGQSVFKLFMSRREAAASRRNNRVFFRSGNAYEVELWIPTCKGQRLFLFRNKFVHSGSGKNEIFLICSGTDITEERRAQERLRILANTDSITGLPNRNAMQDLIDHAINHADNNKVGVVYLDLDNFKKVNDAYGHLFGDQLLRDVSLAILSCLEHDQVLARPGGDEFLVLASNTSQSALEAMASRILTRLRLPFRIGLIEVYTSCSVGIALSPEHGSDSTAIIRHADTAMYTAKEGGRGQFCVFTPEMNQRVFEYLWLDTNLRKALENDQLVIHYQPKITWRGEVRSLEALVRWQSPERGLIPPLDFISYAEESGLIVPLGRWVILDVVRQVAKWRDKGINLRVAVNISARQLADQTIFTALKQVLQELNFEYCPIDVELTESCLIENDELALSVIQQFSQLGAQVHLDDFGTGYSSLSQLARFPIDAIKLDQVFVRDIHKQPVSQSLVRAIVAVAQALNLQVIAEGVESAKEDAFLTKNGINERQGFLFAKPMPAVAFERWYKRYLKRA,not soluble
12,APIKGVTFGEDTVWEVQGYKNVRITFELDERVDKVLNEKCSVYTVESGTEVTEFACVVAEAVVKTLQPVSDLLTNMGIDLDEWSVATFYLFDDAGEENFSSRMYCSFYPPDE,soluble
13,MQTFGSRGEKRTFEMLTNEVEYQHYRFSFANNPATAAGIFQLAEIELTVVADAPLVDFASNISRAEIGENVQFWDRSLANPTGWQWTFEDGEPATSTNRNPAVTFTSLGAKSVTLVASNDKGSNEKVQEQVVHIWDSQNPWAGYVKPTVTLVAHKPEHEGQIAFSRVMPDIEAVIHDISLQIVKVLYKDVAEAPLFKTVTFETDEYDFPAAKSGTDEDMILMMDVAHLANKAAEGDDALRDEVIGMLWHELTHGYNNSPNSGEYATGDEYHSYLESLANYMRIKAGFHESRRVGIKWVDNWNVDAYEQTSFFLEWVANSHRSVDFIYLFNKAAGDLKEWSFEAAFKSIFGEDKGVSIFWQEYHDAQGIEPPYPTPVDGYRNFAVDEGVSISTNATTVIIPDWDAYEGEDKLIDNNVTKKFNAFIEGTWWLEEHASHLFPINDITNVEVTFELPDAIVLHKYSVTTGNDNPQRDPTLWTISGSVDGEVWTQLDSDNYPSDPERLITFHYDIDDAVTAYKYYQFVFENTQPAGDSIGGDNGRLVQIGEIALLTEELEHHHHHH,soluble
14,MAHHHHHHMSASAPRVGLLGAANIAWRAWTGVRANGMSVTRVGCRDVDRGRNFVKRVCDALKIDEAAVPAVCSYEELVSAADVDVVYIAIPVKARDHWVRECIKYKKHVVGEKPPATDAEMLRSWIEALDQQNLLYMDGTMLSHGKRVKEICAAVKQMGGPVKHIFANVTLGGDEAFLANNIRTNPELEPHGALGDLGWYCIRYALHLMDFQMPTEVTGRILKQNDKGAIISFIGDMTFEVGGEVALVSFFVSFEAAFEQTLHITTTEGMLQLDDMCLPMTSRPETVYYEVHNSSYDNVCESHNLHTEVKHTVNGDAPNSQCTELWGDVARILYADGEGDARRLKAKEESSRYWATVSWKTQAVMDKMLESALIGRNAAPTA,not soluble
15,MKIAVVTESSANLKAQAVKDYQITVVNDPIMFGNHVYHENVDITTDQFYRLLKVEKEIPTISQISMPEMQVVFDQLQAAGYDQILVIGLSSGISGWINNLKTYAPSVDGIDVRVFDSRTACAGTANMVKLAAAMALADYTLDEIIAQLTRLRAATTTVLIVNSMRHLVKNGRIYNNSSLAGTMVLRNKPIITFNGHGKIQLLGKERTLKNAQQAVQDEFSQFVMNSQLPVRLDVISANDARIAEDWASELRYQFPAVRVKTGVIGPVLGVLTGDHALGMIWSLDWKPLLTTLNQEQKQ,not soluble
16,PKYTIVDKETCIACGACGAAAPDIYDYDEDGIAYVTLDDNQGIVEVPDILIDDMMDAFEGCPTDSIKVADEPFDGDPNKFE,soluble
17,MSPSKLSNDETPPDLDFRFTGIKQRLIKSENVKQVTASWKRLLVEINKEFTEIAKIGPSYVPKCDFIDIKDNKLPQQVSELFKQRGCLMIENVIDVDRIDIWFNELVEFCKTHPETAGYTFPNPTSWYNVFWSKPQTEARFHPNIKAIFKAMSKEFYVEDKENCLIDLDTQLVYGDRIRIREPGKAAALPLHLDSSSIERWEDIMYSEVYKSIFEGDWENWDAFKLDERTYSKENLYKDEDDTGGKSTICSSFRTLQGWLALSNNKSGEGTLRVLPSLKLSMAYIMLRPFFWKDPESGNIDDYEIDMITPKFPGTVPGTGQLFLDKFYPHLHQGIISIPDVKKGSFVFWHCDLPHEVDREHNGNGHSSVLYYGQTPLSITNIQTLLDTRDAFLKNISPADYRSQLNEEEKQKEFQGANIDDLKNDIDSKRSMGLEEFEIPENMSGGQAKIRSIANQALKTGGFNVDKYIHHAAK,soluble
18,MIHSMTAFSRIQKQFDVGDFCWEIRSVNHRYLDVSFRLPESFRFLEAELRTLLRDKIHRGKLECHLKYKDTSCDNRSMLINIGTINALLDLSSKLSASHHLANDMTVSQVLSWPGVVEANLLDMEELSQIALELFQKSIDKLCEVRAGEGRSLKAYVEDRLQALRQEVMKSKSIVVSMSAKTKDKLLTRLHELQMDVPEARVEQEIALLLAKLDVSEELDRLETHIAEVSRTLNAEKVTGRRLDFLMQELNREANTLSSKSDSAELTLCAVEMKVLIEQMREQIQNFE,not soluble
19,MGHHHHHHSHMAKAITGVVCYACRIASTLLLYQELMRKGIRWLIELIKDDYNETVHKKTEVVITLDFCIRNIEKTVKVYEKLMKINLEAAELGEISDIHTKLLRLSSSQGTIETSLQDIDSRLSPGGSLADAWAHQEGTHPKDRNVEKLQVLLNCMTEIYYQFKKDKAERRLAYNEEQIHKFDKQKLYYHATKAMTHFTDECVKKYEAFLNKSEEWIRKMLHLRKQLLSLTNQCFDIEEEVSKYQEYTNELQETLPQKMFTASSGIKHTMTPIYPSSNTLVEMTLGMKKLKEEMEGVVKELAENNHILERFGSLTMDGGLRNVDCL,not soluble
